Results: publication PMC6969161, “Rad50 zinc hook functions as a constitutive dimerization module interchangeable with SMC hinge” (Nature Communications, 2020)

T1: human Rad50 (human, UniProt Q92878 1-1312)
T1 construct: Captured by the 3xFLAG tag on anti-FLAG beads, then released by PreScission cleavage, so the tag is absent in the AFM samples; Expressed with Mre11 (and Nbs1) or alone; also called Rad50-3×FLAG; R of MRN, Mre11/Rad50 and M2R2; source: Sf9, baculovirus, purified (anti-FLAG M2 beads, eluted by PreScission cleavage, HiTrapQ, Superdex 200); not shown: 3xFLAG, C-terminal, cleaved
T1 sequence (looked up): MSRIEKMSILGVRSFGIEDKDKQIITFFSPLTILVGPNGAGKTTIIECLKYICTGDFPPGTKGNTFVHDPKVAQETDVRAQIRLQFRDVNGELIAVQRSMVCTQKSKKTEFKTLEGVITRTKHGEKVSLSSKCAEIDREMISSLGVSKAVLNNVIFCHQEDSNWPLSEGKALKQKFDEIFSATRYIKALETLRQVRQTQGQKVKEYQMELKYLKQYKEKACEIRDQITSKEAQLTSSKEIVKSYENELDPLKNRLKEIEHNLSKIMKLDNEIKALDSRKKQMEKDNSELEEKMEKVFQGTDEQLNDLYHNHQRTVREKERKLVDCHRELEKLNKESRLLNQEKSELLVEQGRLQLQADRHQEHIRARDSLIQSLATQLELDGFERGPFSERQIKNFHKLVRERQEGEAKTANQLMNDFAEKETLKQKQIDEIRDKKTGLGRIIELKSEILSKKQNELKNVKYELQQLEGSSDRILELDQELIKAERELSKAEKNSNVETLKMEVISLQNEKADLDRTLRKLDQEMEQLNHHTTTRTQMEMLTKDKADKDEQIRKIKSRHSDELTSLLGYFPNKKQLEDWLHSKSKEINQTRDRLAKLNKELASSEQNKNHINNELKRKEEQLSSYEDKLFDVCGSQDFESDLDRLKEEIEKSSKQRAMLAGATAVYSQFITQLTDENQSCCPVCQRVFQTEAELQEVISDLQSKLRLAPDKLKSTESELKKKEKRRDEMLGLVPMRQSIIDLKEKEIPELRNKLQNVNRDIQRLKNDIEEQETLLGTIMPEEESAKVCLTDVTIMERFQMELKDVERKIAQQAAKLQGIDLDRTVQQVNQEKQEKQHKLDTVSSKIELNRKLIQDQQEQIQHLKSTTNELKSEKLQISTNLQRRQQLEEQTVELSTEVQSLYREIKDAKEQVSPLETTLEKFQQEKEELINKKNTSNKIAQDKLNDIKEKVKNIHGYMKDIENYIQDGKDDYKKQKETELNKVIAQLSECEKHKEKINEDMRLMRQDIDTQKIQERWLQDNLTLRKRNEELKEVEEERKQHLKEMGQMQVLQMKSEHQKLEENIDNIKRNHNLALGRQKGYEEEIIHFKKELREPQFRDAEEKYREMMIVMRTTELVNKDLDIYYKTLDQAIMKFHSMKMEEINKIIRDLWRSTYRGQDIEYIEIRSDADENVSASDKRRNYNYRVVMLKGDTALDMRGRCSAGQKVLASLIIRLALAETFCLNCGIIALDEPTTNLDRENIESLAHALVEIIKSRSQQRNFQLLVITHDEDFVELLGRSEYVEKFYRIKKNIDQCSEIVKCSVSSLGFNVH

B1: human Mre11 (natural protein, UniProt P49959 1-708, looked up)
chain: MSTADALDDENTFKILVATDIHLGFMEKDAVRGNDTFVTLDEILRLAQENEVDFILLGGDLFHENKPSRKTLHTCLELLRKYCMGDRPVQFEILSDQSVNFGFSKFPWVNYQDGNLNISIPVFSIHGNHDDPTGADALCALDILSCAGFVNHFGRSMSVEKIDISPVLLQKGSTKIALYGLGSIPDERLYRMFVNKKVTMLRPKEDENSWFNLFVIHQNRSKHGSTNFIPEQFLDDFIDLVIWGHEHECKIAPTKNEQQLFYISQPGSSVVTSLSPGEAVKKHVGLLRIKGRKMNMHKIPLHTVRQFFMEDIVLANHPDIFNPDNPKVTQAIQSFCLEKIEEMLENAERERLGNSHQPEKPLVRLRVDYSGGFEPFSVLRFSQKFVDRVANPKDIIHFFRHREQKEKTGEEINFGKLITKPSEGTTLRVEDLVKQYFQTAEKNVQLSLLTERGMGEAVQEFVDKEEKDAIEELVKYQLEKTQRFLKERHIDALEDKIDEEVRRFRETRQKNTNEEDDEVREAMTRARALRSQSEESASAFSADDLMSIDLAEQMANDSDDSISAATNKGRGRGRGRRGGRGQNSASRGGSQRGRADTGLETSTRSRNSKTAVSASRNMSIIDAFKSTRQQPSRNVTTKNYSEVIEVDESDVEEDIFPTTSKTDQRWSSTSSSKIMSQSQVSKGVDFESSEDDDDDPFMNTSSLRRNRR
notes: Mre11, human, from human MRE11 cDNA in pFASTBAC1; also called M of MRN, Mre11/Rad50 and M2R2; source: Sf9, baculovirus, co-purified with Rad50-3×FLAG (anti-FLAG M2 beads, HiTrapQ, Superdex 200)
B2: S. pombe Rad50 (natural protein, UniProt Q9UTJ8 1-1285, looked up)
chain: MSCIDRMSIMGIRSFDNRSRESIQFFSPLTLIVGQNGSGKTTIIECLKYATTGILPPNTKGGAFIHDPKICGEKEVLAQVKLAFRNTNQVKMICTRSLQLSVKKTTRQQKTLDGQLLILKDNERTTISNRCAELDSQVPLSLGVSKALLDYVIFCHQEESFWPLSEPANLKKRFDEIFESLRYAKALDQIKGLKRDQETQVKVDQATLTHYRSDKERAEKIELRVHESLKRISCIRSKVEELDQEITETARLQDELFKSTEEYEQQMITIRHLESQSDIINTTINDLKSQMTITDESSEDLEKLHSNFAEKVKEEQELYKSLEKKRSDLESLLKSRRELLEKLTGDLGKIQGEIESLEKLKVKKSTMINEIVHRYNINEINEEGIMTEVSKYASLVNKNYEISSGKLKERQVAVRARIEGIKAHEMFLNNRVSEINSSLEKQLTTQKELRSRFEILFPVKLQREDFTKDVEKSDLWIKSLRQEYESKNLLELLDKHQTALSSVENRLDEISEIVDSYHKYSGVRTKLQVFEENKTNKSAILANQLMTLKSSFSEVMSYELKDDDNYNEELDKLVEDVRKKLQEKEEAESSLRSVRERLEIRISLSVQSINDLTENKKIKTKTLKSYSGTFASMISEIKALESEIEENRKTLHSLQFGSTFYEKAIEICVDQHACQLCQRSLDKEEEKLFVEHCHSMIDVIPSKSAEVYSHLETLTKTFKNLSEAKPIFDEIELLDKRLSETKTELSDLQGDLQGLDIRKDEIQSELDTLYLRRANLEKLQLLVKDISNLEEEIRTIDRETEVLRIELPSSIAHHNLDEIYAEREKLLEKRGYLRKQIERTKLEETSFKKKIDDAVLANNEQKLKLTKLNFQVNELEQLEKDINKSSEDCDLQKKKLLEVSSKQGSQAPFLNELESEYEKLEADIQEMAQKSRTEILEANEYLHQLNEWNSELRIDVSTKFKCIKEKKSNIGEEVRIIASKIESTDDNLRKLQERLADLRTRERNASDNLRLRALMRQLEEAVTQKNYLLSQQSHDDRESFRERMQILKSKYGALNAERAGLLGECKQLENSITKDKEELNMEFKDADERFRRQLIKTKTTGKANEDLGKYAKALDVAIMQLHSMKMNEINRIVDELWKQTYCGTDIDTILIRSDSEGKGNRTYNYRVCMVKGDAELDMRGRCSAGQKVLACIIIRLALAECLGVNCGILALDEPTTNLDEENICSLAKNLSRIVEFRRKQANFQLIVITHDEQFIRLVNSDAYCSYYYRVKRDTNQKSMIVKEPL
notes: Rad50, S. pombe; The host is a wild-type strain, so endogenous Rad50 and Mre11 were also present; also called fission yeast Rad50; rad50:TEV:PA; source: S. pombe CA3, from pREP1-rad50:TEV:PA, co-purified with Mre11-3xFLAG (anti-FLAG M2 agarose, HRV3C elution, Superose 6HR)
B3: E. coli SbcC (natural protein)
chain: not shown
notes: SbcC (E. coli Rad50), E. coli; also called E. coli Rad50; SbcC of SbcCD; source: E. coli DL776 with plasmid pDL761, purified as SbcCD (HiTrap DEAE, ammonium precipitation, Superose 6, Mono Q)

Key:
[1] = target: T1, human Rad50; assay: co-purification (anti-FLAG affinity, ion exchange, size exclusion); proteins co-expressed in Sf9 cells; extract at 200 mM KCl on anti-FLAG M2 beads by Rad50-3×FLAG, eluted by PreScission cleavage, HiTrapQ; wild-type Mre11/Rad50 further on Superdex 200; molar ratio from the purified preparations; details: partners not purified
[2] = target: the molecule itself; assay: high-speed AFM; purified complexes on bare mica, imaged in 25 mM Tris-HCl pH 7.5, 75 mM KCl, 3 mM MgCl2, tapping mode; with or without 1 mM ATP or ATP-γ-S

| Binder | stoichiometry N [1] | binding result [2] |
| --- | --- | --- |
| B1 | ~1 Rad50 to Mre11, molar ratio |  |
| B2 |  | binds |
| B3 |  | binds |
